Experiment [1] concerns the target Aspergillus terreus glutamate dehydrogenase, wild type (Aspergillus terreus). The experiment can be described thus: crystal structure.
Experiment [2] has the same target. The experiment can be described thus: cryo-EM structure.
For experiment [3], the target named is 2nd_AtGDH-ΔT262-A263 (Aspergillus terreus). Kind of experiment: crystal structure.
Experiment [4] has the same target. The experiment can be described thus: SEC. For orientation: Size exclusion chromatography separates by hydrodynamic size, large species first.
In experiment [5] the target is 7th_AtGDH-R246S (Aspergillus terreus). The experiment can be described thus: crystal structure.
Experiment [6] shares this target. Kind of experiment: SEC.
Experiment [7] has as its target 8th_AtGDH-A216Q (Aspergillus terreus). The experiment can be described thus: SEC.
Experiment [8] has as its target AnGDH-S246R (Aspergillus niger). The experiment can be described thus: SEC.
Experiment [9] deals with AnGDH-Q216A (Aspergillus niger). The experiment can be described thus: SEC.
In experiment [10] the target is Aspergillus niger glutamate dehydrogenase, wild type (Aspergillus niger). The experiment can be described thus: cryo-EM structure.

By stoichiometry N is commonly meant the number of molecules, sites or subunits per partner or assembly. As to “Aspergillus terreus glutamate dehydrogenase, wild type (enzyme)”, the stoichiometry N in experiment [1] and in experiment [2] was 6 each time. Take 2nd_AtGDH-ΔT262-A263 (enzyme): the stoichiometry N in experiment [3] and in experiment [4] was 6 in each case. As to 7th_AtGDH-R246S (enzyme), the stoichiometry N in experiment [5] and in [6] was 6 in each case.

For 8th_AtGDH-A216Q (enzyme), the stoichiometry N in experiment [7] turned out to be 6. Substance AnGDH-S246R (enzyme) yielded a stoichiometry N in experiment [8] of 6.

In turn, AnGDH-Q216A (enzyme) came in with a stoichiometry N in [9] of 6. In turn, “Aspergillus niger glutamate dehydrogenase, wild type (enzyme)” yielded a stoichiometry N in [10] of 6.

The values above are taken from article doi:10.1101/2024.04.12.589225.
